# Measured values from the DeepSol protein solubility set.
# Assay: soluble on expression in E. coli; label from the status in PepcDB or PDB records
row,Sequence,soluble on expression in E. coli
1,MGSDKIHHHHHHMKVFVIGAGLMGRGIAIAIASKHEVVLQDVSEKALEAAREQIPEELLSKIEFTTTLEKVKDCDIVMEAVFEDLNTKVEVLREVERLTNAPLCSNTSVISVDDIAERLDSPSRFLGVHWMNPPHVMPLVEIVISRFTDSKTVAFVEGFLRELGKEVVVCKGQSLVNRFNAAVLSEASRMIEEGVRAEDVDRVWKHHLGLLYTLFGPLGNLDYIGLDVAYYASLYLYKRFGDEKFKPPEWLQEKIKKGEVGVKAGKGIYEYGPKAYEERVERLKKLLRFLGLE,soluble
2,MGSDKIHHHHHHMKVLLYLEAENYLRKSGIGRAIKHQAKALSLVGQHFTTNPRETYDLVHLNTYGLKSWLLMIKAQKAGKKVIMHGHSTEEDFRNSFIFSNLLSPWFKKYLCHFYNKADAIITPTLYSKSLIESYGVKSPIFAVSNGIDLEQYGADPKKEAAFRRYFDIKEGEKVVMGAGLFFLRKGIDDFVKVAQAMPDVRFIWFGETNKWVIPAQVRQMVNGNHPKNLIFPGYIKGDVYEGAMTGADAFFFPSREETEGIVVLEALASRQHLVLRDIPVYYGWVDQSSAELATDIPGFIEALKKVFSGASNKVEAGYKVAQSRRLETVGHALVDVYKKVMEL,not soluble
3,MGSDKIHHHHHHMKVLNKPLEGVKVIDLTYFVAGPGTSKILADWGADVIKVEPSFGDPGRKTGATMTMPIDDYNNPFYSTYNSNKRGLSINLKSETGIEIMDKLLSEANVFVSSYRTGALKRLGLDYESLSKKHPHLIWGQINGFGDFGPAKDNAGFDTVAFWARSGAMLDIAEKDTSPINPPIAFGDATTSCSLSGGICAALYQQAKTGKGQKVMASLFGQAIWNASSLLASTQFSDEYPKTRKNAISPVINSYRCKDGKWIFLSILEHERYFEALCRLFGREDLIKEEKFASSVESKKNATELINILDGEFAKFTQNEMVEKLTAADIAHEKIQHVNDVVTDEQAIANNYIYEHTSKNGNKTMLASTPVKFGNIEVNMTCDAPLIGEHSDEILRELGYSDSDIEALIESGIVTMNKEACEIC,not soluble
4,MGSDKIHHHHHHMKVTFGQQTTKVKQLADLLSQEISMGKYKSDCTLPSINKLSREYQVSRDTVFKAFIDLKDRGIIDSTPGKGYYVTNKLTNILLLLDEYSPFKYSLYNSFIKKLSINYKVDLLFHQYNERLFNTILRESIGRYNKYIVMNFDNEKLSPHLYKIDSSKLLLLDFGKFDKKDYSYVCQDFDDSFYHALAALKEHLRKYQRLVLLFPEDIKHPRSSCQYFNCFCQDYHIDSAIVENTDRIQVRKGEVYIAIRQIEVVNIIKQSRTTGLKCGEDFGLIAYNDTPAYEVIDQGITVLSINWEELGRKAAEFVLTGQEIRTYLPTEVHLRNSI,not soluble
5,MGSDKIHHHHHHMKVWPVKHSPLLRQPERFIARSELQALIRNVTQNLVNIKDESGQFLLRLDDGRVIDTKGWAGWEWTHGVGLYGIYQYYQQTGDIEMRDIIDRWFADRFAEGATTKNVNTMAPFLTLAYRFEETGRMAYLPWLESWAEWAMHEMPRTEQGGMQHMTLAEENHQQMWDDTLMMTVLPLAKIGKLLNRPQYVEEATYQFLLHVQNLMDRETGLWFHGWNYEGRHNFARARWARGNSWLTMVIPDFLELVDLPEGNAVRRYLITVLDAQIAALAECQDDSGLWHTLLDDPHSYLEASATAGFAYGILKAVRKRYVGQHYAGVAEKAIRGIVQNISPQGELLQTSFGTGMGSDLDFYRQIPLTSMPYGQAMAILCLTEYLRKYF,not soluble
6,MGSDKIHHHHHHMLAENLKSLYLDEWNRYVGHEFVRRMEHGDLPLENFKFYLVQDSLYVEEMLRAVMRSTELMPNDMAIRILSSVVLGRDKGMETHAFLEKELGVEKSSRMTMTTYSYTRHLRYSSTIGWPQFLAAWIPCMWGYSEIGKTVLNSPNRYYRTWAEFYASKEYADRVSVILEAMDRFNGDITEIKDYFLISLKFEQMFWQAAFDMEKPI,not soluble
7,MGSDKIHHHHHHMLFRASRSDMSNLTNCITNESVAVTADKKPVIGRIHSFESCGTVDGPGIRFITFFQGCLMRCLYCHNRDTWDTHGGKEITVEDLMKEVVTYRHFMNASGGGVTASGGEAILQAEFVRDWFRACKKEGIHTCLDTNGFVRRYDPVIDELLDVTDLVMLDLKQMNDEIHQNLVGVSNHRTLEFAQYLSKKNVKVWIRYVVVPGWSDDDDSAHRLGEFTRDMGNVEKIELLPYHELGKHKWVAMGEEYKLDGVKPPKKETMERVKGILEQYGHKVMY,not soluble
8,MGSDKIHHHHHHMLGKGVVDYTREGSILSAEQRRFYEKNGYLLIRNCVPQYELNRFRQRFQDICEKKVKAPENMTVMKDISIAKSEFKDGEKAITKIQDFADDPVLFEYCKYPGVVDVVKDLIGNPKSNLMAMHTMLINKPPDNGKLTSRHPMHQDLQYFPFRPADFICCAWTAMEKITRANGCLVVVPGTHKGVLLPHEYPKWEGGVNKAYHGIQDYDTSTPRIHVEMEPGDTVFFHPILIHGSGANRTEGFRKAISCHYANDDLCRYVNVEGTTQETLAEEIIEIAKKRLTRYGLDPNTVTLDFADIWRVRAREVNGRRSNL,not soluble
9,MGSDKIHHHHHHMLGQRIKSLRKAKKLTQSDVADGIMTKSMLSMIENEKATPSLPALQSIAHRLHVSIDALLIDPRAVEMKQMIEKINSTASGYYAEGQIATMLEPYLEPAINSYWQGQIYYEYGSALRFSDTEKGLHYFDLAEDVFQQLGLRDEQIKVQISKVYFLFFLRRYEEAYRKIDGMMIFQDVPLAHETFLDYQMLQAIRVSVINDNWSQSIVFLREGIRYMREKGVYSDVSNYHRLLALFLSLEEDYEAAEFELEKLRHFFLFTEATALDQILVDLTKGSIAVHREDYAGIREARERLIEVEIEACLHYIGYFEVYLCLWNDSKEELTFDLPSAVSKIWRNAHLWRAGGEYDHAMMLYALAFAMQAGVGLDRQAEVEELTTQLSPGHFKQKIEQTLARLT,not soluble
10,MGSDKIHHHHHHMLKKVSRLDYFTLQVFIGLVELKSGSAVAERLRTTQSKVSRCLTCLREVLEDELFIRQQYGFEPNQVAVTIYPMVKTILEQYDKIVAATIDKGAEPYQLSVATYEQWSLMAMNCVHNTCHCIEGGVSINIQPWTDKIHQRLCQGKVDCSISTEPINHPMVNNFKLGDITHFFIVARRGHPILSSDAPLTQMFNYHIALVNTHLQEQEPHPIEVYAKARHIEIRVALKSPSLRMVVDHVSHSEDIALLSSAMSMAYFENRDDVDYLDISKIWLQTTELETQSYYLHCHKGIKPELTHCLRRVLTEKLHEMQAHCDQVAQENTRDLPTL,not soluble
11,MGSDKIHHHHHHMLKSLLLTPINLAVKPFPAAKARLDAAKIVLKRWVKLRHFISDLLHAKSFMFWSAQDTSYAKLSSELIFQYHKLEKGLCMAGPRRFFGRDPVIATCRLVKRWSGAGLPSNDPVFLGAIETLRAYRDRLAVTPPPPEHATQIWSLLNECLSLAPPTPSLTTPRPYQPSAGTAATFDLLCAQRRSVRAYTTDVVPISLIHEAIATAQLSPSACNRQPWRLHIYRDPQRTKHLLELQNGNAGFGHQLTTLLVVCADSRTFFDATERNEPYVDAGLFVMSLLLALQSRGLASCCLNWCVSPDTDQKGHDRGDIPSNEKIIMYLAVGYADAQAMVPRSPRRNLETVVTLHEQ,not soluble
12,MGSDKIHHHHHHMLLVFASCGVNKSTEDSKKTNETKVEQIATLSAGTPVQSLDPATAVDQTSVTLLANVMEGLYRLDEKNQPQPAIAAGQPKISNGGKTYTIVIRDGAKWADGTDITADDFVTAWQRVLDPKTASPNVELFAAIKNAKEISIGKQQKETLGVKSKGNKTIEIELEEPTPYFTDLLALTAYFPVQQNAVKEYGKEYGTTKENIVTNGAFTLTDLNGVGISDKWTIAKNPKYWDKKHVAMEKIKFQVVKDINTGINLYNDGQLDDAPVAGEYSKQLENNKDFIRELSATTMFLEVNQRNKKSITSNKHARQAINFAIDREAISNKILTNGSIPAKGVVPSKLVYNPKTGKDFTNSSLVFLDKSKAKDSWEKAKKELKGTDLSIDIMVNEEDLSKKLGEYLQNELQDTLDGLKVSVTAVPATLQTERLNSGNFMIALSGWQADFADPVSFLANFESKSSLNHGGYANEEYDKLLKNNSSKRLQELKDAEKLILEDAGVIPLLQIGNAKLRNQKISEMKVHSIGAKYDYKTMEIK,not soluble
13,MGSDKIHHHHHHMLLYIHGFNSSPFSDKAIMTAQYMAQHHPSVLFHQPQLPNTPKAAMALLLEYVEAALKDDEPLTYIGSSLGGYFASYLAEHYGGRAVLVNPAVKPFELFDEFMGPQFNPYTGENYQVLPEHKMEVAEFNTPVIRNPDRFLVLLQSGDEVLDYREALSKYHHCQLRIEAAGDHSFVGYEHYLQTISQFLHLP,not soluble
14,MGSDKIHHHHHHMLNEIITIYAITDDLLKAIGHDDDIRRDMIDAEIITTALVAAMFFNGNHSKACAYMKDHKLIPNMLEKSRFNLRLHNLSMLLNDLFHQIGMIIKEISDSTEYLLDSFPVTICDNIRIFQVHLIQSEEYRGYIASKKRYFYGVRVQLISTKSGIPVEFAFLPGSANDVRGLNALPFNLPPGSEVYADAAYTDYTVEDDMAQSSQISLKVMRKKNSKRQDQPWNQYVKQYTRHYIETVFSCITCIFPKSIHAVTYEGFLLKLQAFIFAFTLKSAFM,not soluble
15,MGSDKIHHHHHHMLNIVVVAHPDDEILGFGATGAKLAAKGEVVQPIILCGSVDARTLRPTDEELHSDMLKANSLVGFSKPVLGDFPNISMNTVPHVELVQFIEEQIKKFRPNRIFTHHPNDLNNDHTQVSNACLAASRLFQRRNDLPALEALYFMEILSSTDWAFPAVGDGFKPTTFVEITCELEKKLAALHHYRNVMRPFPHPRSDEVVTGLAAYRGGQAGLKYAEAFQLVFKQGV,not soluble
16,MGSDKIHHHHHHMLNPLWLKTFITLVETGHFTQTASKLFMTQPGVSQHLNKLEQACGHQLLIRSRSGIELTEAGERLYQYALSQARAEAALLDSLDEDNPFSGSCRLACSGSLAQLLYPKLLALQAAHPGLKVHMEAAPNARIINEVQQGDKDLGIITAPPPRGLFSDTDIGTQALCLVLPASSEATTDDASLPSINELKVLGLISHPDAAHYLSLFFAHSGSPGYQNAFAEDFPISSYINQLGQILLPVSMGLGFTVLPLSVVEQFSERDKLRVCVGLERVFEPLYLIHKRQRQLPARFDTIRSLIQSVLTSTTDSPQ,not soluble
17,MGSDKIHHHHHHMLPRQPRSRTSADCSGFPARYGGWLALLLSRLSRSAGKEPGCERGARPRTAMRGSHGSISCIATGCLLSSSAMIWTISDLHLSFARPKPMDIFGPGWKDHPERIAQAWRERVAATDWVLIAGDISWAMKLPDALLDLQWIDALPGTKVLIRGNHDYWCPRRVNSIRRHLPPSLRLIGADALDIGEAVVCGTRGWITPETPGFTETDLPIYQRELGLLERALAAGQALAVNKPLIVMIHFPPFVNRQPTEFSRRIAASGAAACIYGHLHRRYDWDNAVQGRVDGVYYQLTACDYLGFGPVAVRGLNGWSGG,not soluble
18,MGSDKIHHHHHHMLRGINRQIIFEDDEDYQNFMGTIKETQEKSGYEVYAYCLMSNHVHLLLKEVTEDLGIAFRRIGAIYVYWYNWKYSRRGHLFQARYKSEAVETDSYFLTVLRYIHQNPYKAGIVKNIADYPWSSYGEYVGEPRICDVEFGLNMFSTNRTNAVKLFEEFNLAENQDQCLDYNQDVRLNDTEASNFIRSISDVQSPTEIQGFEKDKRNEVIKKCKSKGLSIRQIERLTGVSFGVIRTI,not soluble
19,MGSDKIHHHHHHMLRLFQRKSAVLPPVAAVTETALSKGLLQPKPAAELLATPRRQKLLEHIWQRTSLSRKQFHTLYRVPLERYADLVQQFPASESHHHAYLGGMLDHGLEIVAFALKLRQSHLLPAGASPEDQAAQAEAWTAAVAYAALLHDIGKIAVDLHVELQGGRIWHPWHGPLSQPYRFRHREGREYRLHGAATGLLYSRILDSAALDWLSGYPALWSQLLYVLSGQYEHADMLGELVVQADRASVAQELGGDPAKVMAAPKHALQRKLLEGLRYLLKEQLKLNQPEASDGWLTEDALWLVSKTVSDKLRAHLLSQGIDGIPASNSAVFNVLQEHSMLQLTCPHRPYQ,not soluble
